Measurements reported in US20030186223A1, “Modular recombinatorial display libraries” (Dyax Corp., priority 2002, published 2003).
Positions of bridges follow the written chain, without caps; N, C: chain ends. No end group written: not given here.

B1: SEQ ID NO 44 phage isolate (peptide, not shown: large carriers; small tags and cut ends)
peptide: RTTCHHQISGPFGPVCVNY
modifications: disulfide 4-16 (inferred); also: displayed on M13 phage fused to protein III via linkers
B2: SEQ ID NO 12 phage isolate (peptide, not shown: large carriers; small tags and cut ends)
peptide: AHQCHHWTSGPYGEVCFNY
modifications: disulfide 4-16 (inferred); also: displayed on M13 phage fused to protein III via linkers
B3: SEQ ID NO 10 phage isolate (peptide, not shown: large carriers; small tags and cut ends)
peptide: RLDCDMVFSGPHGKICVNY
modifications: disulfide 4-16 (inferred); also: displayed on M13 phage fused to protein III via linkers
B4: SEQ ID NO 43 phage isolate (peptide, not shown: large carriers; small tags and cut ends)
peptide: SNKCDHYQSGPFGDICVSY
modifications: disulfide 4-16 (inferred); also: displayed on M13 phage fused to protein III via linkers
B5: SEQ ID NO 42 phage isolate (peptide, not shown: large carriers; small tags and cut ends)
peptide: SNKCDHYQSGPFGDVCVSY
modifications: disulfide 4-16 (inferred); also: displayed on M13 phage fused to protein III via linkers
B6: SEQ ID NO 45 phage isolate (peptide, not shown: large carriers; small tags and cut ends)
peptide: RTTCHHQISGPYGDICVKY
modifications: disulfide 4-16 (inferred); also: displayed on M13 phage fused to protein III via linkers

Columns and labels:
KDR-Fc fusion protein = molecular target: T1, KDR-Fc fusion protein (Homo sapiens, UniProt P35968); assay: BIAcore surface plasmon resonance binding of synthetic polypeptides to immobilized KDR-Fc; details: BIAcore SPR; KDR-Fc fusion immobilized on chip; synthetic polypeptide with acetyl-Ser-Gly- and -Gly-Ser flanks
T1 construct: purchased R & D Systems (Minneapolis, Minn.) 357-KD-050
Procedure: Binding affinity of selected peptides from the various rounds of selection was tested using a BIAcore surface plasmon resonance spectrophotometer. Polypeptides selected from Tables 1, 2, and 3 were synthesized by solid phase synthesis using the sequence as shown in the tables above and an N-terminal flanking peptide, acetyl-Ser-Gly-, and a C-terminal flanking peptide, -Gly-Ser. A KDR-Fc fusion protein target was immobilized on a BIAcore chip, and the synthetic polypeptides were flowed over the chip to measure the KD of the polypeptides with respect to the KDR target.

[1] = molecular target: T2, KDR-Fc fusion (chimeric fusion of Ig Fc region with human KDR, R & D Systems #357-KD-050) (human, UniProt P35968 20-764); assay: secondary library, round 1: phage display selection against KDR-Fc as before
T2 construct: Bought carrier-free from R & D Systems; also called KDR-Fc fusion protein target; KDR target; not shown: Ig Fc region

[2] = molecular target: T2, KDR-Fc fusion (chimeric fusion of Ig Fc …); assay: BIAcore SPR, KDR-Fc immobilized on chip, synthetic peptide flowed over
[3] = molecular target: T2, KDR-Fc fusion (chimeric fusion of Ig Fc …); assay: phage display selection on KDR-Fc beads and phage ELISA screen on KDR-Fc
Procedure: The phage library was incubated with 50 μl of Trail R4 Fc fusion beads on a Labquake shaker for 1 hour at room temperature (RT). After incubation, the phage supernatant was removed and incubated with another 50 μl of Trail R4 beads. This was repeated for a total of 5 rounds of depletion, to remove non-specific Fc fusion and bead binding phage from the library. The depleted library was added to 100 μl of KDR-Fc beads and allowed to incubate on a LabQuake shaker for 1 hour at RT. Beads were then washed as rapidly as possible with 5×1 ml PBSTH using a magnetic stand (Promega) to separate the beads from the wash buffer. Phage still bound to beads after the washing were competition-eluted using soluble VEGF₁₆₅ (#100-20) purchased in carrier-free form from Peprotech (Rocky Hill, N.J.) as follows: The beads were incubated with 250 μl of VEGF (50 μg/ml,˜1 μM) overnight at room temperature (RT) on a LabQuake shaker. […]
Once the plates were prepared, each overnight phage culture was diluted 1:1 (or to 10¹⁰ pfu if using purified phage stock) with PBS, 0.05% Tween-20, 1% BSA. […] Each plate was washed 7 times with PBST (PBS, 0.05% Tween-20), then the plates were developed with HRP substrate (˜10 minutes) and the absorbance signal (630 nm) detected with a plate reader.

T2 sequence (P35968 20-764, stated change not applied): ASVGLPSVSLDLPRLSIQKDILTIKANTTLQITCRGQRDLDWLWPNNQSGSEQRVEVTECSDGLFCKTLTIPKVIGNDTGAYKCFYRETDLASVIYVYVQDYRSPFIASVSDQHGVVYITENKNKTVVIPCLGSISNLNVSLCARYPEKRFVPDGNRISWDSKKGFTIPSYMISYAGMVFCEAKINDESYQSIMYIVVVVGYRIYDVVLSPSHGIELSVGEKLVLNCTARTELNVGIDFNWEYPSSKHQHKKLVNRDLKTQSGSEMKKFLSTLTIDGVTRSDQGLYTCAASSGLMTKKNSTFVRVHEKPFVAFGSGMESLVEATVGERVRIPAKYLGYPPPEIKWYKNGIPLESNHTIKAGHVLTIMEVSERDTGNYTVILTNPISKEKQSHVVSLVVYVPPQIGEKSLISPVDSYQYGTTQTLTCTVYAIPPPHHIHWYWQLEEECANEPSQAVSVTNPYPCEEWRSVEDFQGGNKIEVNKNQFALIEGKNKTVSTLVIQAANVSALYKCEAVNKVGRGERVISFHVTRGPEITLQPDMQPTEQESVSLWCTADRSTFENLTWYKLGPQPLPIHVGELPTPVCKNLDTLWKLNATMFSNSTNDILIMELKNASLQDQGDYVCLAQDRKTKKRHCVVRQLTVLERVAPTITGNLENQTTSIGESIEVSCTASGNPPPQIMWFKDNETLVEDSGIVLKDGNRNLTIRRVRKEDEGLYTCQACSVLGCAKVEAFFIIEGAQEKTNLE
T1 sequence (P35968 with tags, fused parts or gaps limits assumed): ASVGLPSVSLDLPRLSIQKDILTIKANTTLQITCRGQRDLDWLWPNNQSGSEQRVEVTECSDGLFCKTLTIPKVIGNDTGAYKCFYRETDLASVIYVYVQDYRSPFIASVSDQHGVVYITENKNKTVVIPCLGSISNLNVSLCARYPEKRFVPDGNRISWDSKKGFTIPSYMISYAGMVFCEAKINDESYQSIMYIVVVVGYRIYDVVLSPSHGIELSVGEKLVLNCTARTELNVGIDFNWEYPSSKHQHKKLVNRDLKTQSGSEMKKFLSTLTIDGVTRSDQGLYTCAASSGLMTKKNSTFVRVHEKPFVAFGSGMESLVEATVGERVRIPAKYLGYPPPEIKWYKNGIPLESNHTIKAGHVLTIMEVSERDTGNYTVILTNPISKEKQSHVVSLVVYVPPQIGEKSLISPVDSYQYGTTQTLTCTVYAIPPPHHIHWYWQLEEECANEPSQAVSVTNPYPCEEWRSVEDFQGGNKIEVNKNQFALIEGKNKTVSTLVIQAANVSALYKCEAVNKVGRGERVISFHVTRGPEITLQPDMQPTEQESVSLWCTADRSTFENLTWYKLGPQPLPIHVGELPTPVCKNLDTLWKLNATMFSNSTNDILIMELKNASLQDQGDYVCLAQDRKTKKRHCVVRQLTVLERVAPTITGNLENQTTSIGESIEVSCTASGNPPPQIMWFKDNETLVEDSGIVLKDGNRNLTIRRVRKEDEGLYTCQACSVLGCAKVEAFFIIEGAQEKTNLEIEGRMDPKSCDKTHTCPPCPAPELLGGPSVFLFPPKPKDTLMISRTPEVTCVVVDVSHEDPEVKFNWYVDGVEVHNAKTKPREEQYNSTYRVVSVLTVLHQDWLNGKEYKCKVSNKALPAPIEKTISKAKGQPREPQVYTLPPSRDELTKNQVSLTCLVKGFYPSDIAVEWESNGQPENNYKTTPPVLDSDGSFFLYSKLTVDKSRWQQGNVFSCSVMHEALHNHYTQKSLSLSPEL

| Molecule | binding to KDR target (qualitative) (KDR-Fc fusion protein) | binding result [1] | other results |
| --- | --- | --- | --- |
| SNKCDHYQSGPHGKICVNY (Selected library sequence) [SEQ ID NO: 23] | no binding | – | – |
| SNKCDHYQSGPYGAVCLHY (Selected library sequence) [SEQ ID NO: 7] | no binding | – | – |
| WQECTKVLSGPGQFECEYM (Selected library sequence) [SEQ ID NO: 24] | no binding | – | – |
| WQECTKVLSGPGQFLCSYG (Selected library sequence) [SEQ ID NO: 6] | no binding | – | – |
| B1 | – | binds | – |
| Ac-SGRLDCDKVFSGPYGKVCVSYGS (cysteine pairing not given here) [SEQ ID NO 49 synthetic polypeptide] | – | – | Kd [2]: 1000 nM |
| B2 | – | – | binding result [3]: binds |
| B3 | – | – | binding result [3]: binds |
| B4 | – | binds | – |
| B5 | – | binds | – |
| B6 | – | binds | – |
| Ac-SGRTTCHHQISGPHGKICVNYGS (cysteine pairing not given here) [SEQ ID NO 22 synthetic polypeptide] | – | – | Kd [2]: 650 nM |
